Source: PMC6821830

Biological target: TopBP1 BRCT1-6 (UniProt Q92547)
Experiment: GST-TopBP1 pull-down from cell extract, blot
Conditions: reference: wild-type MEFs, IR-treated; sites S29

**Q.** With “E2F1 (mouse) (from UniProt Q61501) E2f1 S29A knock-in MEFs, IR-treated” as the substance, how does the “binding against the reference” value read?
**A.** lost
